Laboratory results taken from US20260184748A1 (University of Pennsylvania, published 2026).
Where no end group is shown, it is not given here.

How the values were obtained:
Assay in all cases: cell-based or functional assay
GIPR = biological target: T1, GIPR (UniProt P48546 22-466)
T1 sequence (looked up): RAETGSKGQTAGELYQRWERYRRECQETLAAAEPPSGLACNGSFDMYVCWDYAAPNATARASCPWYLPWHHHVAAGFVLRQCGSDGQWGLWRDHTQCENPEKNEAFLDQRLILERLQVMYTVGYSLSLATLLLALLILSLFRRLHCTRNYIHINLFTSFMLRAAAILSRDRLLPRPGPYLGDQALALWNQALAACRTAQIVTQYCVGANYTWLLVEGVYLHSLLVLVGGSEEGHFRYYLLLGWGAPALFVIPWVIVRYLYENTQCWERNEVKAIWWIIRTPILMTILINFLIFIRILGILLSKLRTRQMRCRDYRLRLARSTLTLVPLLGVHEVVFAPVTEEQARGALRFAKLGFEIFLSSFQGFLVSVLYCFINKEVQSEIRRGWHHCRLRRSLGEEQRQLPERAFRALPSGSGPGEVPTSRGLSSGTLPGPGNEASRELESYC

CXCR2 = biological target: T2, CXCR2 (UniProt P25025 1-360)
T2 sequence (looked up): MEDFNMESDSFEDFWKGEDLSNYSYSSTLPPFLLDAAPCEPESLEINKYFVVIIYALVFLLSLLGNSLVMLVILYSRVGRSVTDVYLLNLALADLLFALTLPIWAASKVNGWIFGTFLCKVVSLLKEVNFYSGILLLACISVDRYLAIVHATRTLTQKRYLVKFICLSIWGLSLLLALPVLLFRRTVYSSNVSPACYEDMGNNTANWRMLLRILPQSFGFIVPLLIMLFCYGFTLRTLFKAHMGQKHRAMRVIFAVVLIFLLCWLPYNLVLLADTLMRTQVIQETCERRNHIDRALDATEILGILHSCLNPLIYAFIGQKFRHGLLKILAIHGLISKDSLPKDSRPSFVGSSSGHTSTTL

ADCYAP1R1 = biological target: T3, ADCYAP1R1 (UniProt P41586 21-468, limits assumed)
T3 sequence (looked up): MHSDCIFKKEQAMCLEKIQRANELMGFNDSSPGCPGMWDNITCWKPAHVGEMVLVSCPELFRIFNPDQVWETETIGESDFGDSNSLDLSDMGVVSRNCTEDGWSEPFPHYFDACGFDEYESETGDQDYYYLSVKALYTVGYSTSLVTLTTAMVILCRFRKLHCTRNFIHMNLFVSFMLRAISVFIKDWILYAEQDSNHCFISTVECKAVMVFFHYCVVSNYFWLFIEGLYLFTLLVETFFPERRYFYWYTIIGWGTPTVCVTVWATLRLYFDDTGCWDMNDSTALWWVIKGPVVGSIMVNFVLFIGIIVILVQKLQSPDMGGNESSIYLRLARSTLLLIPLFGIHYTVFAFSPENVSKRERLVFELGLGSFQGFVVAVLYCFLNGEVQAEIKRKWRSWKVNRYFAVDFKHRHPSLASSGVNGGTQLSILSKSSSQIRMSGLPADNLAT

VIPR1 = biological target: T4, VIPR1 (UniProt P32241 31-457)
T4 sequence (looked up): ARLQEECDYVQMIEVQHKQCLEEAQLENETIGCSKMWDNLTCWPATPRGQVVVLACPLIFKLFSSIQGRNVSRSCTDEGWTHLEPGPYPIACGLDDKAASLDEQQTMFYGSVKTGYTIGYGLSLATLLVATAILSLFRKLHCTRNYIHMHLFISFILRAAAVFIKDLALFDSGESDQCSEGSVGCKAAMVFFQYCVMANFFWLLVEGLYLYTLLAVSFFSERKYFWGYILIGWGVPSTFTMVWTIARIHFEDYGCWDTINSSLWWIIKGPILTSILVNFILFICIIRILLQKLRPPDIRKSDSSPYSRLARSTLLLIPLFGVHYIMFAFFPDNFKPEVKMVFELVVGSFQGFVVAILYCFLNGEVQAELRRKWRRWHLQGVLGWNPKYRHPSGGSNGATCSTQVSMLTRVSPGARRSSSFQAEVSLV

HCRTR1 = biological target: T5, HCRTR1 (UniProt O43613 1-425)
T5 sequence (looked up): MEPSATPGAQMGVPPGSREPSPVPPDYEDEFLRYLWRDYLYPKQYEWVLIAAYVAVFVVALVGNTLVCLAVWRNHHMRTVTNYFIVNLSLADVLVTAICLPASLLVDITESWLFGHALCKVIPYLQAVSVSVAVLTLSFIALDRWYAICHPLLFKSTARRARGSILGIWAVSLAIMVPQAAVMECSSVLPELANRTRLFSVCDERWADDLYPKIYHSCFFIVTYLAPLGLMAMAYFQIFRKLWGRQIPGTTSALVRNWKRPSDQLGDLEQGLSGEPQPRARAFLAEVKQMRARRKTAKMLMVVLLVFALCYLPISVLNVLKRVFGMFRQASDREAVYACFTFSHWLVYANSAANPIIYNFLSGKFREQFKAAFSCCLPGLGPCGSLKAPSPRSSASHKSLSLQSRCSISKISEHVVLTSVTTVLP

CCR6 = biological target: T6, CCR6 (UniProt P51684 1-374)
T6 sequence (looked up): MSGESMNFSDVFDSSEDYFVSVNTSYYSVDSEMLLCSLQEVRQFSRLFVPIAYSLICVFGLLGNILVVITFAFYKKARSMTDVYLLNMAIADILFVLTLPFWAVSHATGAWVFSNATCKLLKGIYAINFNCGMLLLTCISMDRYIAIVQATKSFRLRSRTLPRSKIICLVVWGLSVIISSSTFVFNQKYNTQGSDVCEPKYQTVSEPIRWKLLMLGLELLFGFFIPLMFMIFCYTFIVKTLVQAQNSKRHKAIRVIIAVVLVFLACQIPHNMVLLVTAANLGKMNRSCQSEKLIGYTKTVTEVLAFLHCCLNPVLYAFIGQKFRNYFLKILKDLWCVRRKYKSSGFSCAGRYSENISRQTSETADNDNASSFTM

CALCRL-RAMP2 = CALCRL-RAMP2 (UniProt Q16602 23-461; O60895 43-175)
CALCRL-RAMP2, sequence (Q16602 23-461 limits assumed, chain 1 of 2): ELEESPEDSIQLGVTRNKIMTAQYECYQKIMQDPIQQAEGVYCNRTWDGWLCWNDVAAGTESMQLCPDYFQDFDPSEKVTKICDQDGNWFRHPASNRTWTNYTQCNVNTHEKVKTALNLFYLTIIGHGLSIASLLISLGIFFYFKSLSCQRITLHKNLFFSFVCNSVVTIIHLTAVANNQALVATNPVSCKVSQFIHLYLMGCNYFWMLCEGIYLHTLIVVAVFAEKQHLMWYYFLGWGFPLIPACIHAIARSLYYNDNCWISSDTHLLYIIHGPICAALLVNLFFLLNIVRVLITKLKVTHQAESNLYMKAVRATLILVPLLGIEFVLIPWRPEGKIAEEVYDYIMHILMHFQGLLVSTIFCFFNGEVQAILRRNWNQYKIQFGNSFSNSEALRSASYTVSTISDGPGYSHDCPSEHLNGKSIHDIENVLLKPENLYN
CALCRL-RAMP2, sequence (O60895 43-175 limits assumed, chain 2 of 2): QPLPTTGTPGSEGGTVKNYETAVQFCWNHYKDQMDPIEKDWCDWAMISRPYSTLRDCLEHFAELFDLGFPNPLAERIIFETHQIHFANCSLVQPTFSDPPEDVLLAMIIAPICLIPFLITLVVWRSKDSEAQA

TSHR(L) = TSHR(L) (UniProt P16473 21-764, limits assumed)
GLP1R = GLP1R (UniProt P43220 24-463)
GLP1R, sequence (P43220 24-463 limits assumed): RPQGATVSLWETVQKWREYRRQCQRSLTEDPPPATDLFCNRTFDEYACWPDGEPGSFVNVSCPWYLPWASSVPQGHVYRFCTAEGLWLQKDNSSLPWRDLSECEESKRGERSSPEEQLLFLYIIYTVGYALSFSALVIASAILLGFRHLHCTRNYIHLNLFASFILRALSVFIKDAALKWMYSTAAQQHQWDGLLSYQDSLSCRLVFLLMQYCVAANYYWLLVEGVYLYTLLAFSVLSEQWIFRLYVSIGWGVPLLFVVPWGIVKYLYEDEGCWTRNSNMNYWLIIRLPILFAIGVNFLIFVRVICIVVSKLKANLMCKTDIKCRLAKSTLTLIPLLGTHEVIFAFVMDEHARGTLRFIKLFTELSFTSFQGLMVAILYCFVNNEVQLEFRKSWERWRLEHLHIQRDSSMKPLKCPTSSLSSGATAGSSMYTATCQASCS

MCHR2 = MCHR2 (UniProt Q969V1 1-340)
MCHR2, sequence (Q969V1 whole entry): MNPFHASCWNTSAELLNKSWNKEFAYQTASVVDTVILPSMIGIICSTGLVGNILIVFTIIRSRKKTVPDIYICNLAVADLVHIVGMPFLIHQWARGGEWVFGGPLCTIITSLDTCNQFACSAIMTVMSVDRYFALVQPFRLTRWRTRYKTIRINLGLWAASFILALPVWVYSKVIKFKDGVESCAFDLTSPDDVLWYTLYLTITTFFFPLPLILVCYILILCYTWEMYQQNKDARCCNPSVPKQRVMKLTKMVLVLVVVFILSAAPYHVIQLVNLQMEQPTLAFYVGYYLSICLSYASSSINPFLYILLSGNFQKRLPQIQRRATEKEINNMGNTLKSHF

QATVGDVNTDRPGLLDLK (also: synthesised on Rink amide resin, C-terminal amide not given here outright) [octadecaneuropeptide (ODN)]
% Activity, arrestin, antagonist mode, 2.5 uM (GIPR): -18.9%
% Activity, arrestin, antagonist mode, 2.5 uM (CXCR2): -9.8%
% Activity, arrestin, antagonist mode, 2.5 uM (ADCYAP1R1): 0.9%
% Activity, arrestin, antagonist mode, 2.5 uM (VIPR1): -11.6%
% Activity, arrestin, antagonist mode, 2.5 uM (HCRTR1): -1.7%
% Activity, arrestin, antagonist mode, 2.5 uM (CCR6): -14.8%
% Activity, arrestin, antagonist mode, 2.5 uM (CALCRL-RAMP2): -11.6%
% Activity, arrestin, antagonist mode, 2.5 uM (TSHR(L)): -19.1%
% Activity, arrestin, antagonist mode, 2.5 uM (GLP1R): -11%
% Activity, arrestin, antagonist mode, 2.5 uM (MCHR2): -10.5%
